Measured values taken from the supplement of paper PMC5998384.

What was measured:
HeLa Kyoto [1] = experiment: solubility in G1/S (NP-40 vs SDS abundance) (log2 ratio); higher = more soluble; conditions: cell cycle stage: G1/S
HeLa Kyoto [2] = experiment: solubility change mitosis vs G1/S (difference of NP-40 vs SDS log2 ratios) (log2 ratio difference); higher = more soluble in mitosis
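For solubility change mitosis vs G1/S (difference of NP-40 vs SDS log2 ratios) in this document: synchronized HeLa Kyoto cells (double thymidine block for G1/S, nocodazole release for mitosis), protein amounts in NP-40 versus SDS lysates quantified by mass spectrometry, three biological replicates.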
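For solubility in G1/S (NP-40 vs SDS abundance) in this document: HeLa Kyoto cells arrested at G1/S by double thymidine block, proteins quantified by TMT10plex mass spectrometry in mild NP-40 versus SDS extracts, three biological replicates.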

Chain of WWC1 (chain, as listed by the source): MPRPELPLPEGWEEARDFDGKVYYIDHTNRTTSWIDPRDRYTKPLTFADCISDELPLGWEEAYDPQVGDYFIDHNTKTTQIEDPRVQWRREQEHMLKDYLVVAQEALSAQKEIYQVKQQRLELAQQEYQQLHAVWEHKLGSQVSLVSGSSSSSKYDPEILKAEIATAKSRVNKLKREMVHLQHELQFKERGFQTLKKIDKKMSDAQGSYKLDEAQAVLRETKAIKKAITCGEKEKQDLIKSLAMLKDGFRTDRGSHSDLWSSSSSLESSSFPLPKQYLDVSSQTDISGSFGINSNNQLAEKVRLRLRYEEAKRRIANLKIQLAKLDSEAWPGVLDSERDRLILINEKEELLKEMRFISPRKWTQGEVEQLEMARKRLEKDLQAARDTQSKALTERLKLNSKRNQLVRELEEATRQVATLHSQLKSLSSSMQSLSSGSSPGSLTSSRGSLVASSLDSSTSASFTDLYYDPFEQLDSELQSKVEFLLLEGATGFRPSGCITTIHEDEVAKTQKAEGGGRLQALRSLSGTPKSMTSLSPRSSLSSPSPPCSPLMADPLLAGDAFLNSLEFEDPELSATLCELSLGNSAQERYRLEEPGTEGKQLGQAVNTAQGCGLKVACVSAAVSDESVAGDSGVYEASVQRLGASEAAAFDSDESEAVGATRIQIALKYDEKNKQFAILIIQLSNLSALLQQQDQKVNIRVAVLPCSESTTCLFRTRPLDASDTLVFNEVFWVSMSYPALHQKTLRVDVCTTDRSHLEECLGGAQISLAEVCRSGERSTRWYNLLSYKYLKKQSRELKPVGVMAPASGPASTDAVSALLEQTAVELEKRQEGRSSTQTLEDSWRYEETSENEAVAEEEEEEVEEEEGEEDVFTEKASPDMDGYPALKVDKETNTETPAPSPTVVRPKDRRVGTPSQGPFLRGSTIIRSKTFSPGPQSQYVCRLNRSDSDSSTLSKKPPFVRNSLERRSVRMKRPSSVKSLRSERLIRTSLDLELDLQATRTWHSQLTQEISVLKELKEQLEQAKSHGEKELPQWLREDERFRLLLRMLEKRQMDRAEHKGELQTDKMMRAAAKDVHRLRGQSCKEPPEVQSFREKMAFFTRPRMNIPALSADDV
Chain of ISG20 (chain, as listed by the source): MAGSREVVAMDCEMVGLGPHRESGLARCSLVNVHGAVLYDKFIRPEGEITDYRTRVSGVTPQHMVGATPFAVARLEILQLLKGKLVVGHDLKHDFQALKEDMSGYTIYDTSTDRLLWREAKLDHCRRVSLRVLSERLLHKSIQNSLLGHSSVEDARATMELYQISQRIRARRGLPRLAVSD

| Substance | solubility in G1/S (log2) (HeLa Kyoto [1]) | solubility change mitosis (log2) (HeLa Kyoto [2]) |
| --- | --- | --- |
| MRRSLAPSQLAKRKPEGRSCDDEDWQPGLVTPRKRKSSSETQIQECFLSPFRKPLSQLTNQPPCLDSSQHEAFIRSILSKPFKVPIPNYQGPLGSRALGLKRAGVRRALHDPLEKDALVLYEPPPLSAHDQLKLDKEKLPVHVVVDPILSKVLRPHQREGVKFLWECVTSRRIPGSHGCIMADEMGLGKTLQCITLMWTLLRQSPECKPEIDKAVVVSPSSLVKNWYNEVGKWLGGRIQPLAIDGGSKDEIDQKLEGFMNQRGARVSSPILIISYETFRLHVGVLQKGSVGLVICDEGHRLKNSENQTYQALDSLNTSRRVLISGTPIQNDLLEYFSLVHFVNSGILGTAHEFKKHFELPILKGRDAAASEADRQLGEERLRELTSIVNRCLIRRTSDILSKYLPVKIEQVVCCRLTPLQTELYKRFLRQAKPAEELLEGKMSVSSLSSITSLKKLCNHPALIYDKCVEEEDGFVGALDLFPPGYSSKALEPQLSGKMLVLDYILAVTRSRSSDKVVLVSNYTQTLDLFEKLCRARRYLYVRLDGTMSIKKRAKVVERFNSPSSPDFVFMLSSKAGGCGLNLIGANRLVMFDPDWNPANDEQAMARVWRDGQKKTCYIYRLLSAGTIEEKIFQRQSHKKALSSCVVDEEQDVERHFSLGELKELFILDEASLSDTHDRLHCRRCVNSRQIRPPPDGSDCTSDLAGWNHCTDKWGLRDEVLQAAWDAASTAITFVFHQRSHEEQRGLR [RAD54L] | -0.0919 | -0.192 |
| MAMQEKYPTEGISHVTSPSSDVIQKGSSLGTEWQTPVISEPFRSRFSRCSSVADSGDTAIGTSCSDIAEDFCSSSGSPPFQPIKSHVTIPTAHVMPSTLGTSPAKPNSTPVGPSSSKLPLSGLAESVGMTRNGDLGAMKHSPGLSRDLMYFSGATGENGIEQSWFPAVGHERQEEARKFDIPSMESTLNQSAMMETLYSDPHHRVRFHNPRTSTSKELYRVLPEAKKAPGSGAVFERNGPHSNSSGVLPLGLQPAPGLSKPLPSQVWQPSPDTWHPREQSCELSTCRQQLELIRLQMEQMQLQNGAICHHPAAFGPSLPILEPAQWISILNSNEHLLKEKELLIDKQRKHISQLEQKVRESELQVHSALLGRPAPFGDVCLLRLQELQRENTFLRAQFAQKTEALSREKIDLEKKLSASEVEVQLIRESLKVALQKHSEEVKKQEERVKGRDKHINNLKKKCQKESEQNREKQQRIETLERYLADLPTLEDHQKQSQQLKDSELKSTELQEKVTELESLLEETQAICREKEIQLESLRQREAEFSSAGHSLQDKQSVEETSGEGPEVEMESWQKRYDSLQKIVEKQQQKMDQLRSQVQSLEQEVAQEEGTSQALREEAQRRDSALQQLRTAVKELSVQNQDLIEKNLTLQEHLRQAQPGSPPSPDTAQLALELHQELASCLQDLQAVCSIVTQRAQGHDPNLSLLLGIHSAQHPETQLDLQKPDVIKRKLEEVQQLRRDIEDLRTTMSDRYAQDMGENCVTQ [CEP85] | 0.35 | -0.194 |
| ARHGEF17 | -0.434 | 0.166 |
| MLPGVGVFGTSLTARVIIPLLKDEGFAVKALWGRTQEEAEELAKEMSVPFYTSRIDEVLLHQDVDLVCINLPPPLTRQIAVKTLGIGKNVICDRTATPLDAFRMTSAAHYYPKLMSIMGNVLRFLPAFVRMKQLIEEGYVGEPLVCEVQVHGGSLLGKKYNWSCDDLMGGGGLHSVGTYIIDLLTFLTGQKAVKVHGLLKTFVKQTDHIKGIRQITSDDFCTFQMVLEGGVCCTVTLNFNVPGEFKQDVTVVGSAGRLLAVGTDLYGQRNSAPEQELLVQDATPVSNSLLPEKAFSDIPSPYLRGTIKMMQAVRQAFQDQDDRRTWDGRPLTMAATFDDCLYALCVVDTIKRSSQTGEWQNIAIMTEEPELSPAYLISEAMRRSRMSLYC [GFOD1] | -0.0575 | -0.244 |
| CHD1 | -2.28 | 0.383 |
| MPGVARLPLLLGLLLLPRPGRPLDLADYTYDLAEEDDSEPLNYKDPCKAAAFLGDIALDEEDLRAFQVQQAVDLRRHTARKSSIKAAVPGNTSTPSCQSTNGQPQRGACGRWRGRSRSRRAATSRPERVWPDGVIPFVIGGNFTGSQRAVFRQAMRHWEKHTCVTFLERTDEDSYIVFTYRPCGCCSYVGRRGGGPQAISIGKNCDKFGIVVHELGHVVGFWHEHTRPDRDRHVSIVRENIQPGQEYNFLKMEPQEVESLGETYDFDSIMHYARNTFSRGIFLDTIVPKYEVNGVKPPIGQRTRLSKGDIAQARKLYKCPACGETLQDSTGNFSSPEYPNGYSAHMHCVWRISVTPGEKIILNFTSLDLYRSRLCWYDYVEVRDGFWRKAPLRGRFCGSKLPEPIVSTDSRLWVEFRSSSNWVGKGFFAVYEAICGGDVKKDYGHIQSPNYPDDYRPSKVCIWRIQVSEGFHVGLTFQSFEIERHDSCAYDYLEVRDGHSESSTLIGRYCGYEKPDDIKSTSSRLWLKFVSDGSINKAGFAVNFFKEVDECSRPNRGGCEQRCLNTLGSYKCSCDPGYELAPDKRRCEAACGGFLTKLNGSITSPGWPKEYPPNKNCIWQLVAPTQYRISLQFDFFETEGNDVCKYDFVEVRSGLTADSKLHGKFCGSEKPEVITSQYNNMRVEFKSDNTVSKKGFKAHFFSDKDECSKDNGGCQQDCVNTFGSYECQCRSGFVLHDNKHDCKEAGCDHKVTSTSGTITSPNWPDKYPSKKECTWAISSTPGHRVKLTFMEMDIESQPECAYDHLEVFDGRDAKAPVLGRFCGSKKPEPVLATGSRMFLRFYSDNSVQRKGFQASHATECGGQVRADVKTKDLYSHAQFGDNNYPGGVDCEWVIVAEEGYGVELVFQTFEVEEETDCGYDYMELFDGYDSTAPRLGRYCGSGPPEEVYSAGDSVLVKFHSDDTITKKGFHLRYTSTKFQDTLHSRK [BMP1] | -0.299 | -0.301 |
| MESTAYPLNLSLKEEEEEEEIQSRELEDGPADMQKVRICSEGGWVPALFDEVAIYFSDEEWEVLTEQQKALYREVMRMNYETVLSLEFPFPKPDMITRLEGEEESQNSDEWQLQGGTSAENEESDVKPPDWPNPMNATSQFPQPQHFDSFGLRLPRDITELPEWSEGYPFYMAMGFPGYDLSADDIAGKFQFSRGMRRSYDAGFKLMVVEYAESTNNCQAAKQFGVLEKNVRDWRKVKPQLQNAHAMRRAFRGPKNGRFALVDQRVAEYVRYMQAKGDPITREAMQLKALEIAQEMNIPEKGFKASLGWCRRMMRRYDLSLRHKVPVPQHLPEDLTEKLVTYQRSVLALRRAHDYEVAQMGNADETPICLEVPSRVTVDNQGEKPVLVKTPGREKLKITAMLGVLADGRKLPPYIILRGTYIPPGKFPSGMEIRCHRYGWMTEDLMQDWLEVVWRRRTGAVPKQRGMLILNGFRGHATDSVKNSMESMNTDMVIIPGGLTSQLQVLDVVVYKPLNDSVRAQYSNWLLAGNLALSPTGNAKKPPLGLFLEWVMVAWNSISSESIVQGFKKCHISSNLEEEDDVLWEIESELPGGGEPPKDCDTESMAESN [POGK] | -0.0733 | -0.0638 |
| MAALAEEQTEVAVKLEPEGPPTLLPPQAGDGAGEGSGGTTNNGPNGGGGNVAASSSTGGDGGTPKPTVAVSAAAPAGAAPVPAAAPDAGAPHDRQTLLAVLQFLRQSKLREAEEALRREAGLLEEAVAGSGAPGEVDSAGAEVTSALLSRVTASAPGPAAPDPPGTGASGATVVSGSASGPAAPGKVGSVAVEDQPDVSAVLSAYNQQGDPTMYEEYYSGLKHFIECSLDCHRAELSQLFYPLFVHMYLELVYNQHENEAKSFFEKFHGDQECYYQDDLRVLSSLTKKEHMKGNETMLDFRTSKFVLRISRDSYQLLKRHLQEKQNNQIWNIVQEHLYIDIFDGMPRSKQQIDAMVGSLAGEAKREANKSKVFFGLLKEPEIEVPLDDEDEEGENEEGKPKKKKPKKDSIGSKSKKQDPNAPPQNRIPLPELKDSDKLDKIMNMKETTKRVRLGPDCLPSICFYTFLNAYQGLTAVDVTDDSSLIAGGFADSTVRVWSVTPKKLRSVKQASDLSLIDKESDDVLERIMDEKTASELKILYGHSGPVYGASFSPDRNYLLSSSEDGTVRLWSLQTFTCLVGYKGHNYPVWDTQFSPYGYYFVSGGHDRVARLWATDHYQPLRIFAGHLADVNCTRFHPNSNYVATGSADRTVRLWDVLNGNCVRIFTGHKGPIHSLTFSPNGRFLATGATDGRVLLWDIGHGLMVGELKGHTDTVCSLRFSRDGEILASGSMDNTVRLWDAIKAFEDLETDDFTTATGHINLPENSQELLLGTYMTKSTPVVHLHFTRRNLVLAAGAYSPQ [TAF5] | -0.0963 | 0.00763 |
| MASNSSSCPTPGGGHLNGYPVPPYAFFFPPMLGGLSPPGALTTLQHQLPVSGYSTPSPATIETQSSSSEEIVPSPPSPPPLPRIYKPCFVCQDKSSGYHYGVSACEGCKGFFRRSIQKNMVYTCHRDKNCIINKVTRNRCQYCRLQKCFEVGMSKESVRNDRNKKKKEVPKPECSESYTLTPEVGELIEKVRKAHQETFPALCQLGKYTTNNSSEQRVSLDIDLWDKFSELSTKCIIKTVEFAKQLPGFTTLTIADQITLLKAACLDILILRICTRYTPEQDTMTFSDGLTLNRTQMHNAGFGPLTDLVFAFANQLLPLEMDDAETGLLSAICLICGDRQDLEQPDRVDMLQEPLLEALKVYVRKRRPSRPHMFPKMLMKITDLRSISAKGAERVITLKMEIPGSMPPLIQEMLENSEGLDTLSGQPGGGGRDGGGLAPPPGSCSPSLSPSSNRSSPATHSP [RARA] | 0.18 | -0.153 |
| MSAAGAGAGVEAGFSSEELLSLRFPLHRACRDGDLATLCSLLQQTPHAHLASEDSFYGWTPVHWAAHFGKLECLVQLVRAGATLNVSTTRYAQTPAHIAAFGGHPQCLVWLIQAGANINKPDCEGETPIHKAARSGSLECISALVANGAHVDLRNASGLTAADIAQTQGFQECAQFLLNLQNCHLNHFYNNGILNGGHQNVFPNHISVGTNRKRCLEDSEDFGVKKARTEAQSLDSAVPLTNGDTEDDADKMHVDREFAVVTDMKNSSSVSNTLTNGCVINGHLDFPSTTPLSGMESRNGQCLTGTNGISSGLAPGQPFPSSQGSLCISGTEEPEKTLRANPELCGSLHLNGSPSSCIASRPSWVEDIGDNLYYGHYHGFGDTAESIPELNSVVEHSKSVKVQERYDSAVLGTMHLHHGS [ANKRD10] | 0.0215 | 0.112 |
| ISG20 | 0.28 | -0.182 |
| WWC1 | -0.00567 | -0.4 |
| MAEAGAGLSETVTETTVTVTTEPENRSLTIKLRKRKPEKKVEWTSDTVDNEHMGRRSSKCCCIYEKPRAFGESSTESDEEEEEGCGHTHCVRGHRKGRRRATLGPTPTTPPQPPDPSQPPPGPMQH [PPP1R11] | -0.804 | 0.00513 |
